Assay results from US20260258115A1 (MAPP BIOPHARMACEUTICAL, published 2026).
Changes are numbered by the printed parent chain.

B1: ADI-41241 (antibody, V domains shown)
VH: QVQLVQSGAEVKKPGASVQVSCKASGYTFTGDYMHWVRQAPGQGLEWMGRINPNSGGTNYAQKFQGRVTMTRDTSISTAYMELSRLRSDDTAVYYCARAAAEYSSSSPTSYYYMDVWGKGTTVTVSS
VL: EIQMTQSPSSLSASVGDRVTITCRASQNIYSFLNWYQQKPGKAPKLLIYAASSLQSGVPSRFSGSGSATDFTLTISSLQPEDFATYYCQQSYSPPQITFGQGTKVDIK
B2: ADI-41235 (antibody, V domains shown)
VH: QVQLQQWGAGLLKPSETLSLTCGVYGESFSGHYWSWIRQPPGKGLEWMGEIHHSGTTNYNPSLKSRVTISVDTSKNQFSLKLNSVTAADTAVYYCARNPAEDILTGYSPPFHYYYMDVWGKGTTVTVSS
VL: QSVLTQPPSVSGAPGQRVTISCTGSSSNIGAGYDVHWYQQIPGTAPKLLIHSNNNRPSGVPDRFSGSKSGTSASLAITGLQAEDEADYYCQSYDSSLSVVFGGGTKLTVL
B3: ADI-41238 (antibody, V domains shown)
VH: EVQLLESGGGLVKPGGSLRLSCAASGFTFRDYYMSWIRQAPGKGLEWVSYISSSSSYTEYADSVKGRFTISRDNAKKSLYLQMNSLRTEDTAVYYCARVITQAGTGTTYYMDVWGKGTTVTVSS
VL: B2 VL with A31T, I41L, H51Y, S52A, V99L
B4: ADI-41237 (antibody, V domains shown)
VH: EVQLVESGGGLVKPGGSLRLSCAASGFTFSDYYMNWIRQAPGKGLEWVSDISPSSSYTNYADSVKGRFTISRDNAKNSLYLQMNSLRAEDTAMYYCARRGSCTGGVCSFDYWGQGTLVTVSS
VL: QPGLTQPPSVSGAPGQRVTISCTGSSSNIGAGYDVNWYQQLPGTAPKLLIYDNSNRPSGVPDRFSGSKSGTSASLAITGLQAEDEADFYCQSYDSSLSGFVFGTGTKVTVL
B5: ADI-41239 (antibody, V domains shown)
VH: QITLKESGPTLVKPTQTLTLTCTFSGFSLTTTGVGVGWIRQPPGKALEWLALIYWDDDKRYSPSLKNRITITKDTSKKQVVLTMTNMDPADTATYYCAHISTVVTYDSSGSYYVLINWFDPWGQGTLVTVSS
VL: not shown
B6: ADI-41236 (antibody, V domains shown)
VH: QVQLVQSGGGLVKPGGSLRLSCTASGFTFSDYYMDWIRQAPGKGLEWVSSISSSSTYTKYADSVKGRFTISRDNAKNSLFLQMNSLRAEDTAVYYCVRNLGPYCSSTSCFVFDYWGQGTLVTVSS
VL: QSVLTQPPSVSGAPGQRVSISCTGSSSNIGAGYEVHWYKQVPGTAPRLLMYDNTNRPSGVPDRVSGSKSGTSASLAITGLQAEDEADYYCQSYDNSLNKSVFGGGTKVTVL
B7: ADI-41240 (antibody, V domains shown)
VH: QVQLQQWGAGLLKPSETLSLICDVYGGSFSDYYWSWIRQSPGKGLEWIGEINHSGSTSFHPSLKSRISISIDTSNNQFSLNLSSMTAADTAVYYCARGTLRGYFDYWGQGTLVTVSS
VL: EIVLTQSPSTLSAFVGDRVTITCRASQSISRWLAWYQQKPGKAPNLLISEASSLESGVPSRFSGSGSGTEFTLTISSLQPDDLGTYYCQQYNGYLWTFGQGTKVEIK
B8: ADI-41594 (antibody, V domains shown)
VH: EVQLVESGGGLVKPGGSLRLSCAASGFSFSSYYMNWVRQAPGKGLEWVSSISPSSSYTNYADSVKGRFTISRDNAKDSLYLQMNSLRAEDTAVYYCARDGLLGITIFGVVQDYWGQGTLVTVSS
VL: B2 VL with L4V, I41L, H51Y, S52G, N54T, G66A
B9: ADI-41585 (antibody, V domains shown)
VH: EVQLLESGGGLVKPGGSLRLSCAASGFTFADYYMSWIRQAPGKGLEWVSYISGGSSFTNYADSVKGRFTISRDNAKNSLYLQMNSLRADDTAVYYCARGISPALGGGEYFQDWGQGTLVTVSS
VL: B4 VL with G3V, N36H, Q40H, D52G, G70S, F88Y, S98G, F100Y
B10: ADI-41598 (antibody, V domains shown)
VH: EVQLVESGPGLVKPSETLSLTCTVSGGSITPYYWSWIRQPPGKGLEWIGNISYSGSTTYNPSLKSRVTISVDRSKDQFSLRLRSVTAADTAVYYCARVVTLVLGVSLNDAFDIWGQGTMVTVSS
VL: DIQMTQSPSSLSASVGDRVTITCRASQSISRYLNWYQHKPGKAPILLIYAATTLESGVPPRFSGSGSGTDFSLTISSLQPEDFATYYCQQSYSVPLTFGGGTKLEIK
B11: ADI-41599 (antibody, V domains shown)
VH: EVQLLESGGGLVQPGGSLRLSCAASGFIFSNYEMNWVRQAPGKGLEWISHITPTGNSIYYADSVKGRFTISRDNAKNAQYLQMHSLRPDDTAIYYCARGEDPIAATGGFDSWGQGTLVTVSS
VL: EIVLTQSPSSLSASVGDRVTIPRRSSQNVDKFLHWYQQRPGKAPKLLIYAAFSLQSGVPSRFSGSGSGTDFTLTISSLQPEDFATYYCQQSYSTPFTFGQGTKVEIK
B12: ADI-41563 (antibody, V domains shown)
VH: QVQLVESGPGLVKPSETLSLTCTVSDDSITNNFWTWIRQPPGKGLEWIGYIYYSGSTNYNPSLKSRITMSVDLSKNQFSLKLSSVTAADTAVYYCARLTSGGVDYWGQGTLVTVSS
VL: QSVLTQPPSLSGAPGQRVTISCTGSSSNIGADYHVHWYQQLPGTAPKLLIYQNTNRPSGVPDRFSASKSGTSVSLAITGLQAEDEADYYCQSYDSSLSAWVFGGGTKLTVL
B13: ADI-41597 (antibody, V domains shown)
VH: QVQLQESGPGLVKPSETLSLTCTVSGASVSSNNYYWSWIRQPPGKGLEWIGYIYYSGSTNYNASLKSRVTISVDTSKNQFSLKLSSVTAADTALYYCAGEHIFGVASPFEAPFDYWGQGTMVTVSS
VL: SSELSQPPSVSVAPGKTARITCGGNNIGIKSVHWYQQKPGQAPVLVIYSDSDRPSGIPERFSGSNSGNTATLTITRVEAGDEADYYCQVWDSSSDHFVFGIGTKVTVL
B14: ADI-41589 (antibody, V domains shown)
VH: EVQLLESGGGLVQPGGSLRLSCAASGFTFNFFALTWVRQAPGKGLEWVSAISGSGESTYYADSVKGRFTISRDNSKNTLYLQMNSLRAEDTAVYYCAKFARSGDYASFFDYWGQGTLVTVSS
VL: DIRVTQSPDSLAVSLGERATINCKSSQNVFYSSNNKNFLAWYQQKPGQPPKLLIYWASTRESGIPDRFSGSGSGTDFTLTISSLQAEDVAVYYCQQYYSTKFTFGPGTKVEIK
B15: ADI-36675 (antibody, V domains shown)
VH: EVQLVESGGGLVQPGGSLRLSCAASGFTFNRFAMSWVRQAPGKGLEWVSGISGSGGSTLYADSVKGRFTISRDNSKNTLYLQINSLRVEDTAVYYCASRSSYDDVWNGYVDWDWGFDFYYYGMDVWGQGTTVTVSS
VL: QAVVTQEPSMSAAPGQKVTISCSGGDSNIRNNYVFWYQQLPGTAPKLLIYDNTKRPSGIPGRFSGSKSGASATLDITGLQTGDEADYYCGTWDSSLSALVFGGGTQLTVL
B16: ADI-41812 (antibody, V domains shown)
VH: EVQLVESGGGLVKPGGSLRLSCAASGFTFSSYSMNWVRQAPGKGLEWVSSISAGSSYTDYAESVKGRFTISRDNAKNSLYLKMNSLRAEDTAVYYCARDPGYCSSNSCTVAMDVWGQGTTVTVSS
VL: SYELTQPPSVSGAPGQRVTISCTGSSSNIGAGYDVHWYQQLPGTAPKLLIYGNNNRPSGVPDRFSGSKSGTSASLAITGLQAEDEADYYCQSYDRTLVIFGGGTKLTVL
B17: ADI-41810 (antibody, V domains shown)
VH: QVQLVQSGGGVVQPGRSLRLSCAASGFNFHNYAMHWVRQAPGKGLEWVAVISYDGGNKHYADSVKGRFTISRDNSKNTLYLQMNSLRPDDTAVYYCARGHSDWRGDYFDFWGQGTLVTVSS
VL: DIQLTQSPATLSVSPGERAILSCRASQNVGTNLAWYQQKPGQAPRLLIYDASTRATGIPARFSGSGAGTDFTLTISGLQSEDFAVYYCQQYINWPPYTFGQGTKLEIK
B18: ADI-41584 (antibody, V domains shown)
VH: QVQLVESGAEVKKPGASVKVSCKASGYTFTDYYIHWVRQAPGQGLEWVGRINPNSGYINYAQKFQGRLTMTRDTSISTAYLELSSLRSDDTAVYYCTRLPLLEPLNFFDYWGQGTLVTVSS
VL: QSVVTQPPSVSGAPGQRVTISCTGSSSNIGAGYDVHWYQQLPGTAPKVLIYGNNNRPSGVPDRFSGSKSGTSASLAITGLQAEDEADYYCQSFDSSLSSSYVFGTGTKLTVL
B19: ADI-41571 (antibody, V domains shown)
VH: EVQLLESGGGLVKPGGSLRLSCEASGFPFNSYHMNWIRQSPGKGLEWVSYITGGSSFSNYADSVKGRFTISRDNAKNSLYLQMNSLRAEDTAVYYCARTTLDCTSTSCHYRFDYWGQGTLVTVSS
VL: QSVLTQPPSVSGAPGQRITISCNGSNSNIGAGYDVHWYQQLPGKAPKLLIYSNNNRPSGVPDRFSGSKSGTSASLAITGLQGEDEADYYCQSHDTRLSGNVVFGGGTKLTVL
B20: ADI-41568 (antibody, V domains shown)
VH: QVQLQQWGARLLKPSETLSLTCAVYGGSFSGYYWSWIRQSPGKGLEWIGEINHSGSTNYNPSLKSRVTISRDTSKKQFSLKVSSVTAADTAVYYCARDPPIRCNGDSCKSDQYRYGMDVWGQGTTVTVSS
VL: QPGLTQPPSVSVSPGQTARITCSGDALPKQYAYWYQQKPGQAPVLVIHKDNERPSGIPERFSGSSSGTTVTLTISGVQAEDEADYYCQSADTSGSYRLFGGGTKLTVL
B21: ADI-41595 (antibody, V domains shown)
VH: QVQLVQSGGGVVQPGGSLRLSCAASGFTFSDYGMHWVRQAPGKGLEWVAVISDGGSNQYSADSVRGRFTISRDNSKNTLYLQMNSLRPEDTAVYYCAKARIAARAIFDYWGQGTLVTVSS
VL: DIQLTQSPSSLSASVGERITITCQASRDVRIYLNWYQHKPGKAPKLLIYDASNLETGVPSRYSGSGSGTDFTFTISSLQPEDIATYFCQQYDLLPPTFGVGTKVEIK

What follows are binders tested against RSV F on RSV-A2 virus (Respiratory syncytial virus (RSV-A2)) (assay: cell-based or functional assay).

Going from B1 to B2, the “Neutralization IC50 (RSV subtype A)” value rises from 18.8 µg/mL to > 25 µg/mL.

First: B3
Second: B4
The “Neutralization IC50 (RSV subtype A)” value of the first is 3.2-fold higher: 0.13 µg/mL for the first, 0.04 µg/mL for the second.

B5 and B6 cannot be ordered by “Neutralization IC50 (RSV subtype A)” value: > 25 µg/mL for the first, > 25 µg/mL for the second.

With B7 the “Neutralization IC50 (RSV subtype A)” value was > 25 µg/mL.

These binders were tested against RSV F on RSV-A2 virus (Respiratory syncytial virus, RSV-A2, UniProt P03420 26-574) (assay: cell-based or functional assay).

Compared with B8, B9 is 1.6-fold higher in “Neutralization IC50 (RSV subtype A)” value: 0.0406 µg/mL for the first, 0.0641 µg/mL for the second.

First: B10
Second: B11
The “Neutralization IC50 (RSV subtype A)” value of the first is 3.7-fold lower: 0.174 µg/mL for the first, 0.637 µg/mL for the second.

Going from B12 to B13, the “Neutralization IC50 (RSV subtype A)” value rises from 0.0323 µg/mL to 0.173 µg/mL (5.4-fold).

Going from B14 to B15, the “Neutralization IC50 (RSV subtype A)” value falls from > 25 µg/mL to 0.006 µg/mL.

Compared with B16, B17 is higher in “Neutralization IC50 (RSV subtype A)” value: 0.17 µg/mL for the first, > 25 µg/mL for the second.

Going from B18 to B19, the “Neutralization IC50 (RSV subtype A)” value falls from > 25 µg/mL to 0.0315 µg/mL.

Going from B20 to B21, the “Neutralization IC50 (RSV subtype A)” value falls from > 25 µg/mL to 0.0475 µg/mL.
